Data taken from PMC12279946.

Assays:
[1] = target: SprT-BR;mono-ubiquitin (Ub1) (Homo sapiens?;, UniProt Q9H040;P0CG48 28-245;1-76, |); assay: NMR 1H,15N-HSQC; 200 uM DNA + 500 uM Ub1; synergistic severe line broadening; NMR: 20 mM HEPES/KOH pH 7.2, 150 mM KCl, 10% D2O, 308 K; 100 uM protein, 2x dsDNA, 5x Ub1; conditions: protein: recombinant;recombinant; copies: 1;1; blunt
SprT-BR = target: T1, SprT-BR (UniProt Q9H040 28-245); assay: NMR 1H,15N-HSQC; 100 uM protein, 200 uM DNA; no ubiquitin; line broadening in ZBD-BR; NMR: 20 mM HEPES/KOH pH 7.2, 150 mM KCl, 10% D2O, 308 K; 100 uM protein, 2x dsDNA, 5x Ub1; conditions: protein: recombinant; blunt
T1 sequence: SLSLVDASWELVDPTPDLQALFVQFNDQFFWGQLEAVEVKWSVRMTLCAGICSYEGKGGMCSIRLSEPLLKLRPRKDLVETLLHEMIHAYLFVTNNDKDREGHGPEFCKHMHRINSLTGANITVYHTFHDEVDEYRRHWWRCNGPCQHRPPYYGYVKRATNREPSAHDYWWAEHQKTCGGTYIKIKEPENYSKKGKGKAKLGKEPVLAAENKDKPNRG

SprT-BR-L99S = target: T2, SprT-BR-L99S (UniProt Q9H040 28-245, L99S); assay: NMR 1H,15N-HSQC; 100 uM protein, 200 uM DNA; no ubiquitin; line broadening comparable to WT; NMR: 20 mM HEPES/KOH pH 7.2, 150 mM KCl, 10% D2O, 308 K; 100 uM protein, 2x dsDNA, 5x Ub1; conditions: protein: recombinant; blunt
T2 sequence: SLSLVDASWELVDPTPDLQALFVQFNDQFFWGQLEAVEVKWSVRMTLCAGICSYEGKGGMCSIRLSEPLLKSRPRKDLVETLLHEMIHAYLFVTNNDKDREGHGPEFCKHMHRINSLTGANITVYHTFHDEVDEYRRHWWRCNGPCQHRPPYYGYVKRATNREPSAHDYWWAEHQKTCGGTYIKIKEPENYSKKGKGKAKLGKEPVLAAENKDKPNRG

Measured: binding result

B1: 15-bp dsDNA (NMR) (dsDNA)
DNA 1: CCTTGCTAGGACATC
DNA 2: GATGTCCTAGCAAGG
binds: all assays above
